Measured values published in PMC9080894.

Key:
[1] = molecular target: T1, thrombin, BODIPY-labeled (human, UniProt P00734;P00734 328-363;364-622); assay: single-particle fluorescence microscopy of coated microspheres
[2] = molecular target: T1, thrombin, BODIPY-labeled; assay: single-particle fluorescence microscopy of aptamer-coated microspheres

Binder	binding result [1]	binding result [2]
CCAACCACAGTGTT (ssDNA, 3'-NH2) [NH2-com]	no binding	–
TTCACTGTGGTTGGTGTGGTTGG (structured_DNA, 5'-NH2) [ssTBA]	–	binds
